This note sets out measurements from PMC7041945, “Misfolded proteins bind and activate death receptor 5 to trigger apoptosis during unresolved endoplasmic reticulum stress” (eLife, 2020).

For this assay, the system named is GADD34 mRNA in HCT116 cells. As to the kind of experiment: qPCR of GADD34 transcript. In kind it is cell-based, Homo sapiens. The settings on record: norm to GAPDH.

B1: pRK CHOP (protein, UniProt P35638 1-169, looked up)
DNA damage-inducible …: MAAESLPFSFGTLSSWELEAWYEDLQEVLSSDENGGTYVSPPGNEEEESKIFTTLDPASLAWLTEEEPEPAEVTSTSQSPHSPDSSQSSLAQEEEEEDQGRTRKRKQSGHSPARAGKQRMKEKEQENERKVAQLAEENERLKQEIERLTREVEATRRALIDRMVNLHQA
modifications: expression plasmid
For the molecule B1, the “avg. fold induction, GADD34” value is 1.117 (HCT116, 62 ng); 1.442 (HCT116, 125 ng); 1.579 (HCT116, 250 ng); 2.1696 (HCT116, 500 ng).
